Two molecules from PMC9317961, “Deafness-related protein PDZD7 forms complex with the C-terminal tail of FCHSD2” (Biochemical Journal, 2022) can be followed below.

The target in assay [1] is T1, PDZD7 PDZ3 (a.a. 842-946) (mouse, UniProt E9Q9W7 842-946).
T1 construct: As used in ITC; also called WT PDZD7 PDZ3; source: E. coli BL21 (DE3), purified (nickel-NTA, SEC); not shown: Trx (from the vector pET.32M.3C)
T1 sequence (looked up): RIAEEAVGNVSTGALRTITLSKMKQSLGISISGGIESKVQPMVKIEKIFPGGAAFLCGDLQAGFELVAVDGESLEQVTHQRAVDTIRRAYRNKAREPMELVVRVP
The assay can be described thus: ITC; MicroCal iTC200, 25°C; ~500 μM protein in the syringe titrated into ~50 μM partner in the cell; one-site binding model. To be noted: both partners purified. On the technique in general: ITC needs no label: the signal is the heat of the interaction.

The target of another assay is T2, Trx-tagged PDZD7 PDZ3 (mouse, UniProt E9Q9W7 842-946).
T2 construct: As used in SEC-MALS, thioredoxin tag kept; monomer by SEC-MALS; also called Trx-PDZD7 PDZ3; source: E. coli BL21 (DE3), purified (nickel-NTA, SEC)
T2 sequence (looked up): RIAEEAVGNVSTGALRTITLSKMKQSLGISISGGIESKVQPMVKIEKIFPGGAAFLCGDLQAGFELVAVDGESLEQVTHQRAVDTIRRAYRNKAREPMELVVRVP
Description: SEC-MALS; Superose 12 10/300 GL column, miniDAWN and Optilab detectors; ~300 μl of 50 μM protein loaded; Trx-tagged proteins alone and mixed. To be noted: both partners purified. On the technique in general: Size exclusion chromatography separates by hydrodynamic size, large species first.

B1: FCHSD2 tail (a.a. 729-740) (peptide, UniProt Q3USJ8 729-740, looked up)
chain: TEKMEDVEITLV
notes: As used in ITC; also called WT FCHSD2 tail; source: E. coli BL21 (DE3), purified (nickel-NTA, SEC)
In turn, B1 returned a Kd in assay [1] of approximately 1510 nM.

B2: Trx-tagged FCHSD2 tail (peptide, UniProt Q3USJ8 729-740, looked up)
chain: TEKMEDVEITLV
notes: FCHSD2, residues 729-740; As used in SEC-MALS, thioredoxin tag kept; monomer by SEC-MALS; also called Trx-FCHSD2 tail; source: E. coli BL21 (DE3), purified (nickel-NTA, SEC)
As for B2, in the assay with Trx-tagged PDZD7 PDZ3, the “stoichiometry N” value worked out at 1.

For orientation: Kd means the equilibrium constant for the complex coming apart. High values mean weaker binding, low ones tighter binding. The term stoichiometry N denotes a count of units in the complex or per binding partner.
